The results in this text go back to patent publication US20200010567A1 (NEURIMMUNE, published 2020).

The target of assay [1] is T1, transactive response DNA binding protein 43 (UniProt Q13148 1-414, limits assumed).
T1 construct: also called TDP-43
Description: indirect ELISA, coated protein. The procedure:
(§1) 96-well microplates (Corning) were coated with different target proteins at a concentration of 1-10 μg/ml in coating buffer (15 mM Na₂CO₃, 35 mM NaHCO₃, pH 9.42). Non-specific binding sites were blocked for 1 h at RT with PBS/0.1% Tween®-20 containing 2% BSA (Sigma-Aldrich, Buchs, Switzerland). […] Binding was determined using donkey anti-human IgG Fcγ-specific antibody conjugated with HRP (Jackson ImmunoResearch Laboratories, Inc., West Grove, USA) followed by measurement of HRP activity in a standard colorimetric assay. Signals for target protein were calculated in fold increase above median.
(In general: ELISA stands for enzyme-linked immunosorbent assay.)

In assay [2] the target is Tau (UniProt P10636-8 1-441, limits assumed). Put plainly: indirect ELISA, coated protein. The procedure: as §1
Chain of Tau (P10636 other isoform, or with tags, fused parts or gaps limits assumed): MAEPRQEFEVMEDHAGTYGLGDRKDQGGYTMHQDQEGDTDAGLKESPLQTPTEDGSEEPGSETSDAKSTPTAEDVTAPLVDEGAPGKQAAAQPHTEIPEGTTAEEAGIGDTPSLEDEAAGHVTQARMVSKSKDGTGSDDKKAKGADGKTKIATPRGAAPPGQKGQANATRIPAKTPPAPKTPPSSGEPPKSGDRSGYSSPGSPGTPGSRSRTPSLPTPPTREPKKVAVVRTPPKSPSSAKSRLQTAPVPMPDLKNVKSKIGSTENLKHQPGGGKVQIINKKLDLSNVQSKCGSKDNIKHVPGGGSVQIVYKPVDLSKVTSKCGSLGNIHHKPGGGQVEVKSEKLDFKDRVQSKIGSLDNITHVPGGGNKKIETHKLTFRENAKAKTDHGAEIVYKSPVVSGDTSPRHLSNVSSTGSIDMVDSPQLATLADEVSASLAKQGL
The target of assay [3] is T2, full-length amyloid precursor protein (UniProt P05067 18-770, limits assumed).
T2 construct: also called flAPP
T2 sequence (P05067 18-770 limits assumed): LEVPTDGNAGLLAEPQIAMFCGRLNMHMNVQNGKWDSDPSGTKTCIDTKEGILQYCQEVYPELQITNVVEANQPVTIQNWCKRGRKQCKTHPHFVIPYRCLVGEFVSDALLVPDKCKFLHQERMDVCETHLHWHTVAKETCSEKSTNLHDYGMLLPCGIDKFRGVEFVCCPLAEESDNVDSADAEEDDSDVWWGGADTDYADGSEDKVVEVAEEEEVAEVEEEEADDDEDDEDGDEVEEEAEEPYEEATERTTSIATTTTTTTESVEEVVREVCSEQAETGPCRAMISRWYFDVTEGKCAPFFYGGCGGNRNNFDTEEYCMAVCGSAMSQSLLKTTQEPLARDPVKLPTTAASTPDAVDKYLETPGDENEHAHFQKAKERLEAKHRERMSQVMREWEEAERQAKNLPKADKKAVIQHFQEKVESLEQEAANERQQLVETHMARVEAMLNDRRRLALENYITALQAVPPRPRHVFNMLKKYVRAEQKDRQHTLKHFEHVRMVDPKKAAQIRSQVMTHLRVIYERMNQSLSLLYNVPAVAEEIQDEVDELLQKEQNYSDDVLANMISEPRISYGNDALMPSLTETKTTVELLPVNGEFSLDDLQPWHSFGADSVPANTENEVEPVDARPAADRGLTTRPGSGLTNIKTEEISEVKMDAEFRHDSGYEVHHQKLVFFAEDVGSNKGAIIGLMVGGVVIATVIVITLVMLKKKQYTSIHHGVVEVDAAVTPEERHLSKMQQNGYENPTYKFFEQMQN
Description: indirect ELISA, coated protein. Here is the method:
as §1

For assay [4], the target named is transthyrethin (UniProt P02766 21-147). Description: indirect ELISA, coated protein. Here is the method:
as §1

Assay [5] deals with T3, (GR)15: H-C(GR)15-OH.
T3 construct: synthetic, not coupled to BSA; also called poly-GR DPR protein peptide
T3 peptide: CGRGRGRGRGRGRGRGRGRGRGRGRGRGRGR
Put plainly: indirect ELISA, uncoupled peptide coated, antibody titrated [also D00015 FIG. 3J]. The procedure: (§2) In brief, dipeptide repeat proteins were synthesized and purified by Schafer-N(Copenhagen, Denmark): (GA)₁₅: H-CHHHHHH(GA)₁₅-OH; (GP)₁₅: H-C(GP)₁₅-OH; (GR)₁₅: H-C(GR)₁₅-OH; (PA)₁₅: H-C(PA)₁₅-OH; (PR)₁₅: H—C(PR)₁₅-OH. DPR protein peptides were then conjugated via a bifunctional linker (SMCC) to bovine serum albumin (BSA). 96-well microplates (Corning Incorporated, Corning, USA) were coated with BSA-coupled or -uncoupled dipeptide repeat protein peptides at a concentration of either 5 μg/ml or 20 μg/ml in coating buffer (15 mM Na₂CO₃, 35 mM NaHCO₃, pH 9.42). Non-specific binding sites were blocked for 1 h at room temperature with PBS/0.1% Tween®-20 containing 2% BSA (Sigma-Aldrich, Buchs, Switzerland). Primary antibodies were diluted to the indicated concentrations and incubated 1 h at room temperature, followed by incubation with a donkey anti-human IgG Fcγ-specific antibody conjugated with HRP (Jackson ImmunoResearch Laboratories, Inc., West Grove, USA). Binding was determined by measurement of HRP activity in a standard colorimetric assay. EC₅₀ values were estimated by non-linear regression using GraphPad Prism software (San Diego, USA).

Assay [6] has as its target T4, BSA-coupled (GP)15 DPR protein peptide (bovine, conjugated via a bifunctional linker (SMCC) to bovine serum albumin).
T4 construct: also called BSA-(GP)15
Put plainly: Western blot, BSA-coupled peptide. The procedure: (§3) Resolved proteins were then electroblotted (Novex® Semi-Dry Blotter, 1 h, 25V) on methanol-activated PVDF membranes (Immobilon®-P Transfer Membrane, Merck & Cie, Schaffhausen, Switzerland) by the use of Novex® NuPAGE® transfer buffer 2× (Life Technologies Europe B.V., Zug, Switzerland). Non-specific binding sites were blocked overnight at 4° C. (or alternatively for 1 h at room temperature) with PBS/0.1% Tween®-20 containing 2% BSA (Sigma-Aldrich, Buchs, Switzerland) (PBST). […] Membranes were washed three times in PBST for 15 min at RT and then incubated with a donkey anti-human IgG Fcγ-specific antibody conjugated with HRP (1:20000 or 1:10000 dilution, Jackson ImmunoResearch Laboratories, Inc., West Grove, USA) for 1 h at room temperature. Antibody binding was determined by membrane development using ECL and ImageQuant 350 detection (GE Healthcare, Otelfingen, Switzerland).
(§4) The binding specificity of the human-derived antibodies to BSA-coupled C9orf72 dipeptide repeat proteins (GA)₁₅, (GP)₁₅, (GR)₁₅, (PA)₁₅ and (PR)₁₅ was determined by Western blot analysis.
A general note: In western blotting, separated proteins are transferred to a membrane and probed.

For assay [7], the target named is T5, BSA-coupled (PA)15 DPR protein peptide (bovine, UniProt P02769 25-607, conjugated via a bifunctional linker (SMCC) to bovine serum albumin).
T5 construct: also called BSA-(PA)15
T5 sequence (P02769 25-607 limits assumed): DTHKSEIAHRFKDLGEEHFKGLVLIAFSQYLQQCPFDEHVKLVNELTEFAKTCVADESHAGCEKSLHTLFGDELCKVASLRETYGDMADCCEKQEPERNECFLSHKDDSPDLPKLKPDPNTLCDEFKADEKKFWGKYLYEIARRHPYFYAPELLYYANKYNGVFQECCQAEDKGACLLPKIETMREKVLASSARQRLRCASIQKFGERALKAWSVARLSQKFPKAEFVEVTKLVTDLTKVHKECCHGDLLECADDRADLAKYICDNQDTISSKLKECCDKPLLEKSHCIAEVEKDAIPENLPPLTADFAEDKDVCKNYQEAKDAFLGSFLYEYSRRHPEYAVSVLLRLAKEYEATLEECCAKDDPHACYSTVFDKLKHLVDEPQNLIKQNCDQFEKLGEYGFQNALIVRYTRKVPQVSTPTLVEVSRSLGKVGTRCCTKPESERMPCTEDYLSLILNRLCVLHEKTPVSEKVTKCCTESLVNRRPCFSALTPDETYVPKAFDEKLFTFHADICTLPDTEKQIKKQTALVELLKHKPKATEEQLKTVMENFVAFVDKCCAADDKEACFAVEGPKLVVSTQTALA
Description: Western blot, BSA-coupled peptide. Here is the method: as §3, §4

For assay [8], the target named is T3, (GR)15: H-C(GR)15-OH. Put plainly: indirect ELISA, coated uncoupled peptide. The procedure:
as §2, with “(PR)₁₅: H—C(PR)₁₅-OH. 96-well microplates” for “(PR)₁₅: H—C(PR)₁₅-OH. DPR protein peptides were then conjugated via a bifunctional linker (SMCC) to bovine serum albumin (BSA). 96-well microplates”, “coated with dipeptide repeat” for “coated with BSA-coupled or -uncoupled dipeptide repeat”, “and incubated for 1 h” for “and incubated 1 h”, “Diego, USA). The binding specificity and EC₅₀ of human-derived antibodies for C9orf72 dipeptide repeat protein peptides (GA)₁₅, (GP)₁₅, (GR)₁₅, (PA)₁₅ and (PR)₁₅ were determined by indirect ELISA.” for “Diego, USA).”

The target in assay [9] is T6, (PA)15: H-C(PA)15-OH.
T6 construct: synthetic, not coupled to BSA; also called poly-PA DPR protein peptide
T6 peptide: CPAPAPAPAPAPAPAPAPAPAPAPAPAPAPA
Description: indirect ELISA, coated peptide. Here is the method:
as §2, with “(PR)₁₅: H—C(PR)₁₅-OH. 96-well microplates” for “(PR)₁₅: H—C(PR)₁₅-OH. DPR protein peptides were then conjugated via a bifunctional linker (SMCC) to bovine serum albumin (BSA). 96-well microplates”, “coated with dipeptide repeat” for “coated with BSA-coupled or -uncoupled dipeptide repeat”, “and incubated for 1 h” for “and incubated 1 h”, “Diego, USA). The binding specificity and EC₅₀ of human-derived antibodies for C9orf72 dipeptide repeat protein peptides (GA)₁₅, (GP)₁₅, (GR)₁₅, (PA)₁₅ and (PR)₁₅ were determined by indirect ELISA.” for “Diego, USA).”

Assay [10] concerns the target T7, (GP)15: H-C(GP)15-OH.
T7 construct: synthetic, not coupled to BSA; also called poly-GP DPR protein peptide
T7 peptide: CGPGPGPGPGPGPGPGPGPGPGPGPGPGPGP
Put plainly: indirect ELISA, coated peptide. Here is the method:
as §2, with “(PR)₁₅: H—C(PR)₁₅-OH. 96-well microplates” for “(PR)₁₅: H—C(PR)₁₅-OH. DPR protein peptides were then conjugated via a bifunctional linker (SMCC) to bovine serum albumin (BSA). 96-well microplates”, “coated with dipeptide repeat” for “coated with BSA-coupled or -uncoupled dipeptide repeat”, “and incubated for 1 h” for “and incubated 1 h”, “Diego, USA). The binding specificity and EC₅₀ of human-derived antibodies for C9orf72 dipeptide repeat protein peptides (GA)₁₅, (GP)₁₅, (GR)₁₅, (PA)₁₅ and (PR)₁₅ were determined by indirect ELISA.” for “Diego, USA).”

The target of assay [11] is T7, (GP)15: H-C(GP)15-OH. Put plainly: indirect ELISA, uncoupled peptide coated, antibody titrated [also D00015 FIG. 3L]. The procedure: as §2
Assay [12] addresses T5, BSA-coupled (PA)15 DPR protein peptide. Put plainly: Western blot of BSA-coupled peptides. The procedure: as §3, §4
Assay [13] has as its target T8, BSA-coupled (PR)15 DPR protein peptide (bovine, conjugated via a bifunctional linker (SMCC) to bovine serum albumin).
T8 construct: also called BSA-(PR)15
Put plainly: Western blot of BSA-coupled peptides. The procedure:
as §3, §4

Assay [14] addresses T9, BSA-coupled (GR)15 DPR protein peptide (bovine, UniProt P02769 25-607, conjugated via a bifunctional linker (SMCC) to bovine serum albumin).
T9 construct: also called BSA-(GR)15
Put plainly: Western blot of BSA-coupled peptides. The procedure:
as §3, §4

For assay [15], the target named is T10, (GA)15: H-CHHHHHH(GA)15-OH.
T10 construct: synthetic, not coupled to BSA; also called poly-GA DPR protein peptide
T10 peptide: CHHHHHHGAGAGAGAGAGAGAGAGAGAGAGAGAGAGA
Put plainly: indirect ELISA, uncoupled peptide coated, antibody titrated [also D00011 FIG. 2L]. Here is the method:
as §2, with “(PR)₁₅: H—C(PR)₁₅-OH. 96-well microplates” for “(PR)₁₅: H—C(PR)₁₅-OH. DPR protein peptides were then conjugated via a bifunctional linker (SMCC) to bovine serum albumin (BSA). 96-well microplates”, “coated with dipeptide repeat” for “coated with BSA-coupled or -uncoupled dipeptide repeat”, “and incubated for 1 h” for “and incubated 1 h”, “Diego, USA). The binding specificity and EC₅₀ of human-derived antibodies for C9orf72 dipeptide repeat protein peptides (GA)₁₅, (GP)₁₅, (GR)₁₅, (PA)₁₅ and (PR)₁₅ were determined by indirect ELISA.” for “Diego, USA).”

Assay [16] has as its target T4, BSA-coupled (GP)15 DPR protein peptide. Description: indirect ELISA, BSA-coupled peptide coated, antibody titrated [also D00015 FIG. 3L]. The procedure:
as §2

Assay [17] addresses T11, (PR)15: H-C(PR)15-OH.
T11 construct: synthetic, not coupled to BSA; also called poly-PR DPR protein peptide
T11 peptide: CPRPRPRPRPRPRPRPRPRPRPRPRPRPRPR
Put plainly: indirect ELISA, coated peptide. The procedure:
as §2, with “(PR)₁₅: H—C(PR)₁₅-OH. 96-well microplates” for “(PR)₁₅: H—C(PR)₁₅-OH. DPR protein peptides were then conjugated via a bifunctional linker (SMCC) to bovine serum albumin (BSA). 96-well microplates”, “coated with dipeptide repeat” for “coated with BSA-coupled or -uncoupled dipeptide repeat”, “and incubated for 1 h” for “and incubated 1 h”, “Diego, USA). The binding specificity and EC₅₀ of human-derived antibodies for C9orf72 dipeptide repeat protein peptides (GA)₁₅, (GP)₁₅, (GR)₁₅, (PA)₁₅ and (PR)₁₅ were determined by indirect ELISA.” for “Diego, USA).”

Assay [18] concerns the target T3, (GR)15: H-C(GR)15-OH. Description: indirect ELISA, coated peptide. The procedure:
as §2, with “(PR)₁₅: H—C(PR)₁₅-OH. 96-well microplates” for “(PR)₁₅: H—C(PR)₁₅-OH. DPR protein peptides were then conjugated via a bifunctional linker (SMCC) to bovine serum albumin (BSA). 96-well microplates”, “coated with dipeptide repeat” for “coated with BSA-coupled or -uncoupled dipeptide repeat”, “and incubated for 1 h” for “and incubated 1 h”, “Diego, USA). The binding specificity and EC₅₀ of human-derived antibodies for C9orf72 dipeptide repeat protein peptides (GA)₁₅, (GP)₁₅, (GR)₁₅, (PA)₁₅ and (PR)₁₅ were determined by indirect ELISA.” for “Diego, USA).”

For orientation: EC50 means the concentration giving half of the maximal effect.

T4 sequence (P02769 25-607 limits assumed): as the sequence (P02769 25-607 limits assumed) above
T1 sequence (Q13148 whole entry): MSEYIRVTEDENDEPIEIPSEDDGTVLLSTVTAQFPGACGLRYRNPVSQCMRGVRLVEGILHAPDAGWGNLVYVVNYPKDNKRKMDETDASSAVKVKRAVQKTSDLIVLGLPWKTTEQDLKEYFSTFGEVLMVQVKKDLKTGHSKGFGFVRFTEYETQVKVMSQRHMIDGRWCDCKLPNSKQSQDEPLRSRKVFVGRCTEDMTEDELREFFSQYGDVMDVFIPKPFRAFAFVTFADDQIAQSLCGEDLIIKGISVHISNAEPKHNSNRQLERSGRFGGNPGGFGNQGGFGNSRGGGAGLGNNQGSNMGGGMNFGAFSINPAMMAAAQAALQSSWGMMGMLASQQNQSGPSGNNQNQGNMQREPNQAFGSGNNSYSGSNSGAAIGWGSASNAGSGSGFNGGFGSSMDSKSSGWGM
T9 sequence (P02769 25-607 limits assumed): as the sequence (P02769 25-607 limits assumed) above
T8 sequence (P02769 25-607 limits assumed): as above

B1: NI-308.46F8 (antibody, V domains shown)
VH: QVQLVESGGGVVRPGGSLRLSCTASGFTFDEYGMSWVRQVPGKGLEWVSGINWNGATTRYADSVKGRFTISRDNAKNSLYLQMNSLRAEDTALYHCARDGCRNTSCYIWDWFDPWGQGTLVTVSS
VL: CQSVLTQPPSVSAAPGQKVTISCSGSSSNIGNNYVCWYQNLPGTAPKLLIYDDNKRPSGIPDRFSGSKSGTSATLGITGLQTGDEADYYCGTWDSSLSVVVFGGGTKLTVL
For the molecule B1, the binding result is on record as “no binding (tested: 20 nM)” in assay [1]; “no binding (tested: 20 nM)” in assay [2]; “no binding (tested: 20 nM)” in assay [3]; “no binding (tested: 20 nM)” in assay [4]; “no binding (tested: 10 nM or 100 nM)” in assay [6]; “no binding (tested: 10 nM or 100 nM)” in [7]. For the same molecule, the binding result in assay [9] and in [10] was “no binding” throughout. In addition, the EC50 amounted to 90.3 nM in assay [5] and 40.6 nM in assay [8].

B2: NI-308.12A3 (antibody, V domains shown)
VH: EVQLVETGGGLVQPGGSLRLSCVGSGFLFSDFEMDWVRQAPGKGLEWISYISGDGNIIYQTDSVKGRFTISRDNAKNSLFLQMDSLTVEDTAVYYCARDARENCGGDCYSTSFDFWGQGTLVTVSS
VL: DIQMTQSPDSLAVSLGERATINCKSSQSLLYTANNRNYLAWYQKKAGQPPKLLIHWASTRASGVPDRFSGSGSGTDFILTISSLQAEDVAVYFCQHYYNSPRTFGQGTKVEIK
notes: Recombinant complete human IgG1, kappa
As for B2, the EC50 turned out to be 2.2 nM in assay [11], 19 nM in [15] and 6.1 nM in assay [16]. Moreover, the binding result in assay [12], in assay [13], in assay [14], in assay [17], in assay [9] and in [18] was “no binding” each time.
